Patent US20060223757, “Zinc finger binding domains for GNN” (published 2006)

Experiments:
[1] = molecular target: T1, E2C (six-finger Sp1C framework protein) (synthetic construct); test: EMSA; ±30%; 3 mismatches to E2C target
[2] = molecular target: T2, E3 (six-finger Sp1C framework protein) (synthetic construct); test: EMSA; ±10%; ZBA buffer with ZnCl2, room temperature
[3] = molecular target: T1, E2C (six-finger Sp1C framework protein); test: EMSA; ±15%; ZBA buffer with ZnCl2, room temperature
[4] = molecular target: T2, E3 (six-finger Sp1C framework protein); test: EMSA; ±15%; about 30-fold lower affinity than E3 target

T2 sequence (chain, as listed by the source): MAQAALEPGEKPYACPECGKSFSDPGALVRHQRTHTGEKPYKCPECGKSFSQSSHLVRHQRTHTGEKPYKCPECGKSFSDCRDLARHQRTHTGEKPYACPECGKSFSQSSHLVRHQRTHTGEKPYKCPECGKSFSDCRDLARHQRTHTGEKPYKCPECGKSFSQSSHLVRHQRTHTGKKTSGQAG
T1 sequence (chain, as listed by the source): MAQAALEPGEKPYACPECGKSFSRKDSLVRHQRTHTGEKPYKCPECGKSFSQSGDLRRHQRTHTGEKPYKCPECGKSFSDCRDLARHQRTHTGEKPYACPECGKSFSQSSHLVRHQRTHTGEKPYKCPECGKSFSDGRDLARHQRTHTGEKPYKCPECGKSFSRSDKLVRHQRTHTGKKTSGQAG

Row | Binder | Kd [1] | Kd [2] | Kd [3] | Kd [4]
1 | E3 target site (erbB-3 5'-UTR) (dsDNA) DNA 1: GGAGCCGGAGCCGGAGTC DNA 2: GACTCCGGCTCCGGCTCC | 11 nM | 0.35 nM |  | 
2 | E2C target site (erbB-2 5'-UTR) (dsDNA) DNA 1: GGGGCCGGAGCCGCAGTG DNA 2: CACTGCGGCTCCGGCCCC |  |  | 0.75 nM | 10 nM
